Experimental data: paper PMC3056899
Where two headings read alike, the source gives them in different places.

How the values were obtained:
[1] = biological target: CFIm25;CFIm68 RRM (human;human, UniProt O43809;Q16630 1-227;13-235, |); assay: EMSA
[2] = biological target: CFIm25 (human, UniProt O43809 1-227); assay: EMSA
[3] = biological target: T1, CFIm25 delN21 (crystal);CFIm68 N13-235 (crystal) (human;human, UniProt O43809;Q16630 21-227;13-235, |); assay: X-ray crystallography
[4] = biological target: T1, CFIm25 delN21 (crystal);CFIm68 N13-235 …; assay: X-ray crystallography; remark: listed apart in the source

T1 sequence (O43809 21-227, chain 1 of 2): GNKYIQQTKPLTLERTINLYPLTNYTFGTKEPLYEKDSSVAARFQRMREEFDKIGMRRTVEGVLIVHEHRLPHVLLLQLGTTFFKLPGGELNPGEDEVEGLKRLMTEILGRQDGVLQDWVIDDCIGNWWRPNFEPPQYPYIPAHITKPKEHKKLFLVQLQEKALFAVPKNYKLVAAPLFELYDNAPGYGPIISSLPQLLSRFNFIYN
T1 sequence (Q16630 13-235, chain 2 of 2): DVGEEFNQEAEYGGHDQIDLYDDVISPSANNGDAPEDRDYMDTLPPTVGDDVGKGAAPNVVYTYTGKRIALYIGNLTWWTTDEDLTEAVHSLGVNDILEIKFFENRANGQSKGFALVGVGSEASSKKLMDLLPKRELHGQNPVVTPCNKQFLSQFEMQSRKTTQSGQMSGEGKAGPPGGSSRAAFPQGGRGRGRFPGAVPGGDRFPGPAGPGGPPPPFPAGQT
CFIm25;CFIm68 RRM, sequence (O43809 whole entry, chain 1 of 2): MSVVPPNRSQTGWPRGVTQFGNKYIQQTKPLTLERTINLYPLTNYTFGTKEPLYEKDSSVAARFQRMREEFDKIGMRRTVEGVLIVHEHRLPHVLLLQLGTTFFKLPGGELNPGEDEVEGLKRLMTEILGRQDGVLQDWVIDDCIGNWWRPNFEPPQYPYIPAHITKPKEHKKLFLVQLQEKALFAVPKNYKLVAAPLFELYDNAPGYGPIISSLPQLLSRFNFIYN
CFIm25;CFIm68 RRM, sequence (Q16630 13-235, chain 2 of 2): as the sequence (Q16630 13-235, chain 2 of 2) above
CFIm25, sequence (O43809 whole entry): as the sequence (O43809 whole entry, chain 1 of 2) above

## GGGUGUAAAACAGAUGAUGUAU (ssRNA) [PAPOLA upstream element as printed]
[1]
  Kd: 222 nM
[2]
  Kd: 645 nM

## UAUUUUGUA (ssRNA) [9-mer RNA]
[3]
  binding result: binds

## UUGUAU (ssRNA) [6-mer RNA]
[4]
  binding result: binds
